First the molecules themselves.
B1: Hairpin Ribozyme (parent)
chain: GUCCUCUUUCACGUGCGCGUGAAAGAGAGAAGUGAACCAGAGAAACACACGUUGUGGUAUAUUACCUGGUA

Consider 167 variants from the RNAGym collection of RNA variant scans (doi:10.7554/elife.80360).

In the series the parent is B1. As to the kind of experiment: self-cleavage, relative activity (ratio to wild type); higher = more cleavage; co-transcriptional.
Regarding C4A U58A, the self-cleavage came out at 0.113. C3G G42C: the self-cleavage worked out at 0.103.

As to C4A C12U, the self-cleavage turned out to be 0.319. C3G C37U: the self-cleavage is 0.189.

With C3G C37G, the self-cleavage turned out to be 0.0959. In the case of C4G C48U, the self-cleavage came to 0.146. In the case of C4A G51A it was 0.232. The same measure for C4A G51U: 0.148; for C4G U62C: 0.148; for C4G U62G: 0.114. Take C3G U5A: the self-cleavage stood at 0.15. The same measure for C3G U5G: 0.163; for C3U G54C: 0.211; for C3U A41U: 0.917. For the variant C4U G29U, the self-cleavage amounted to 0.194. In the case of C4U G29A, the self-cleavage was determined as 0.107.

Regarding C4A A23U, the self-cleavage amounted to 0.251.

For C3G U62C, the self-cleavage was found to be 0.0668.

On to C4G C37A, for which the self-cleavage amounted to 0.209. In the case of C4G C37G it was 0.168; in that of C4G C10U, 0.198; in that of C4A A24U, 0.196. With C3U U8A, the self-cleavage worked out at 0.361. In the case of C4A G68U it was 0.111; in that of C3G U8A, 0.377; in that of C3G G57C, 0.0572. The same measure for C3G G57U: 0.0635; for C3G G57A: 0.102; for C4U A44U: 0.162.

For C3U G27U, the self-cleavage is 0.15. For the variant C4G A43G, the self-cleavage came out at 0.121. In the case of C3U G29A it was 0.173.

As to C3G C48U, the self-cleavage worked out at 0.0425. Take C3G G56A: the self-cleavage was 0.115.

Take C3G G56U: the self-cleavage was determined as 0.157.

For C3G G56C, the self-cleavage was 0.112. In the case of C4A G13U it was 0.248; in that of C4A A43U, 0.184. In the case of C4U A47U it was 0.115; in that of C4U A47C, 0.0918. The same measure for C4G C6G: 0.17; for C4G C6U: 0.0456; for C3U G17C: 0.305. Take C3U G17A: the self-cleavage is 0.682. In the case of C3G A35U it was 0.202; in that of C3G A35G, 0.291; in that of C4A A31C, 0.131.

For the variant C4G A30U, the self-cleavage turned out to be 0.175.

In the case of C4G A30C, the self-cleavage came to 0.178. In the case of C4U C12A it was 0.333; in that of C3U U5A, 0.429. The same measure for C4G A45C: 0.0824; for C3G U70C: 0.235. C3G C66A: the self-cleavage is 0.101. C3U G19U: the self-cleavage turned out to be 0.502.

C4G A24C: the self-cleavage worked out at 0.177.

On to C4G A24G, for which the self-cleavage stood at 0.256.

Consider C4G A24U, for which the self-cleavage is 0.183. In the case of C3U C4G it was 0.235; in that of C4A G34U, 1.01; in that of C4G C12A, 0.071. In the case of C3U A28C it was 0.452.

Regarding C3U U55A, the self-cleavage was determined as 0.0909.

As for C3U U55G, the self-cleavage stood at 0.208.

With C4A G42U, the self-cleavage was 0.115. With C4U A23C, the self-cleavage is 0.3. The same measure for C3G A30G: 0.1; for C3G A44U: 0.114. Take C4G G15A: the self-cleavage was 0.216. The same measure for C4G G15C: 0.212; for C3G C38A: 0.119; for C4G A49G: 0.101. In the case of C4G A49U it was 0.183; in that of C3G G69A, 0.108; in that of C3G G17A, 0.388. In the case of C4G G69A it was 0.132; in that of C4G G69U, 0.118; in that of C3U C46G, 0.179. Regarding C3U C46A, the self-cleavage worked out at 0.121. Regarding C4G U20C, the self-cleavage was determined as 0.135.

C3U A23U: the self-cleavage was determined as 0.535. The same measure for C3U A23G: 0.325; for C4A C48A: 0.131; for C3U G13A: 0.522.

For the variant C3U G13C, the self-cleavage amounted to 0.324. On to C3U C66U, for which the self-cleavage came to 0.239. Regarding C3G C12G, the self-cleavage is 0.199. The same measure for C3A U60C: 1.07; for C3G C4U: 0.277; for C4G U70G: 0.219. Turning to C4G U70A, the self-cleavage was 0.161. In the case of C3G U60A it was 0.167; in that of C4A G17U, 0.148. In the case of C3U U20G it was 0.561; in that of C4G U67G, 0.182; in that of C3G G25C, 0.0885. For the variant C4A C46U, the self-cleavage is 0.17. Regarding C4A C46G, the self-cleavage was 0.165. Consider C3U G51U, for which the self-cleavage was 0.538. Turning to C3U G51C, the self-cleavage amounted to 0.402. In the case of C3U U62A it was 0.158. With C3G C10A, the self-cleavage worked out at 0.18. In the case of C3U C37U it was 0.29; in that of C4A U53G, 0.27. In the case of C3U G25C it was 0.0917; in that of C4G A35G, 0.153.

On to C4G G42U, for which the self-cleavage was 0.121. The same measure for C4G G42A: 0.194; for C3U G32C: 0.133. For C4G A28G, the self-cleavage stood at 0.443.

With C4G A28U, the self-cleavage was found to be 0.0783.

For the variant C4U G68C, the self-cleavage is 0.0882.

Turning to C4U G68A, the self-cleavage was 0.18. As to C3G C6U, the self-cleavage worked out at 0.295. Consider C3G C6G, for which the self-cleavage came out at 0.214. In the case of C3G C46U, the self-cleavage was 0.101. Consider C3G C46A, for which the self-cleavage was 0.0768.

For C4A G25C, the self-cleavage came out at 0.153. Turning to C4G C50A, the self-cleavage turned out to be 0.147. For the variant C3U C6U, the self-cleavage was 0.347. For C3U C6A, the self-cleavage came out at 0.372. In the case of C4U G42C it was 0.253. For the variant C3U A47C, the self-cleavage is 0.192. The same measure for C3U A47U: 0.208; for C3U A47G: 0.275; for C4A G56C: 0.157.

As for C3G U9C, the self-cleavage was 0.357. In the case of C4G G29U it was 0.13; in that of C4U A43U, 0.202; in that of C4A C16A, 0.202. C3U U7C: the self-cleavage stood at 0.553. In the case of C3U U7G it was 0.464.

Turning to C3A U55A, the self-cleavage was found to be 0.172. In the case of C4A A39U it was 0.0907; in that of C3U U58G, 0.404. The same measure for C3G U7C: 0.372. In the case of C4A G29U, the self-cleavage amounted to 0.111. Consider C4A G29C, for which the self-cleavage came out at 0.118. The same measure for C3G C16G: 0.34. The same measure for C3G G68A: 0.085; for C4G A41G: 0.219; for C3G C18A: 0.34. In the case of C3G G54C, the self-cleavage was found to be 0.126. In the case of C3G G54U it was 0.175; in that of C4A U8A, 0.16; in that of C4A U8C, 0.113. In the case of C4U A71U it was 0.282; in that of C3U U67G, 0.164; in that of C4A A41U, 0.504. With C4A A41C, the self-cleavage is 0.322. As for C3U A71C, the self-cleavage was 0.962. On to C3U A71U, for which the self-cleavage was 0.429. The same measure for C3U A30C: 0.161; for C3U A44U: 0.0496; for C3U G69U: 0.106. In the case of C4U A31C it was 0.193; in that of C4U A31U, 0.104. Consider C4G G57A, for which the self-cleavage is 0.103. The same measure for C3U C10G: 0.457; for C3G A39C: 0.202.

Consider C3U U70G, for which the self-cleavage came to 0.371. In the case of C3U U33A it was 0.147; in that of C3U U33G, 0.126. Consider C3U U33C, for which the self-cleavage worked out at 0.167. Regarding C3G G15C, the self-cleavage came to 0.493. As for C4A A11U, the self-cleavage worked out at 0.258. The same measure for C4A A11G: 0.158.
